Test [1] deals with T1, human RAGE V-region-Fc fusion protein (human, UniProt Q15109 23-118).
T1 construct: also called hRAGE V-domain-Fc; hRAGE-V-Fc (CM); not shown: Fc domain of human IgG
The test is described as follows: direct binding ELISA, coated hRAGE V-region-Fc. Here is the method: (§1) Antibodies were purified from hybridoma supernatants using standard procedures. Purified antibodies were evaluated for binding to soluble forms of RAGE with the use of ELISA. […] After washing and blocking with PBS containing 1% BSA and 0.05% Tween-20, 100 ul of sample (samples were in several forms: diluted immune serum, hybridoma supernatants, or purified antibodies, as indicated) was added and incubated for 1 hour at room temperature. The plates were washed with PBS, pH 7.2 and bound anti-RAGE antibodies were detected with the use of peroxidase-conjugated goat, anti-mouse IgG (H+L) (IgG) (Pierce, Rockford, Ill.) followed by incubation with the substrate TMB (BioFX Laboratories Owings Mills, Md. Laboratories). Absorbance values were determined at 450 nm in a spectrophotometer. The concentrations of monoclonal antibodies were determined with the use of peroxidase-labeled goat, anti-mouse IgG (Fcγ) (Pierce Rockford, Ill.) and a standard curve was generated by a purified, isotype-matched mouse IgG.
(In general: ELISA stands for enzyme-linked immunosorbent assay.)

The target of test [2] is T2, human RAGE-Fc fusion protein (human, UniProt Q15109 23-344).
T2 construct: also called hRAGE-Fc; huRAGE-Fc; not shown: Fc domain of human IgG
Description: direct binding ELISA, coated hRAGE-Fc. As to the method: as §1

Test [3] addresses T2, human RAGE-Fc fusion protein. The test is described as follows: ligand competition ELISA, panel Blocks hRAGE-Fc interaction with HMGB1; blocked ligand HMGB1. Here is the method:
Wells were washed and blocked as described above and exposed to 100 μl of pre-incubated mixtures of RAGE-Fc or TrkB-Fc (a non-specific Fc control), at 0.1 μg/ml, plus various forms of the indicated antibody preparation (dilutions of immune sera, hybridoma supernatants or purified antibodies) for 1 hour at room temperature.

For test [4], the target named is T3, cynomolgus monkey RAGE (cynomolgus monkey (Macaca fascicularis), UniProt Q15109 23-404 (human entry)).
T3 construct: On transfected 293 cells or endogenous in monkey lung sections; also called 293-cyno monkey RAGE; RAGE in monkey lung
T3 chain: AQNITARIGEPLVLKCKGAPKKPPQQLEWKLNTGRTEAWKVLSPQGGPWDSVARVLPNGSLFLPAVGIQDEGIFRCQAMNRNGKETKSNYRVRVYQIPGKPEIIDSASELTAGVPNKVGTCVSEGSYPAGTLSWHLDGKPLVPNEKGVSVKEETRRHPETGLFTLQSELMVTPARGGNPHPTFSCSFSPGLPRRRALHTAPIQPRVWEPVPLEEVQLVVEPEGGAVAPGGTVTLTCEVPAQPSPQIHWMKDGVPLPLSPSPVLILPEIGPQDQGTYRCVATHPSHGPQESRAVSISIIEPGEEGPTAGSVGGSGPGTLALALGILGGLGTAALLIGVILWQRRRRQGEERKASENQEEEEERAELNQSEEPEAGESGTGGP
The test is described as follows: cell-based ELISA, 293 cells transfected with cynomolgus monkey RAGE. As to the method: Human embryonic kidney 293 cells (American Tissue Type Culture, Manassas, Va.) cells were plated at 5×10⁶ cells per 10 cm² tissue culture plate and cultured overnight at 37° C. The next day cells were transfected with RAGE expression plasmids (pAdori1-3 vector encoding mouse, human, baboon, cynomologus monkey or rabbit RAGE) using LF2000 reagent (Invitrogen, Carlsbad Calif.) at a 4:1 ratio of reagent to plasmid DNA using the manufacturers protocol. Cells were harvested 48 hrs post-transfection using trypsin, washed once with phosphate buffered saline (PBS), then suspended in growth media without serum at a concentration of 2×10⁶ cells/ml.
Primary antibodies at 1 μg/ml were serially diluted at 1:2 or 1:3 in PBS containing 1% bovine serum albumin (BSA) in a 96-well plate. RAGE-transfected 293 cells or control parental 293 cells (50 μl) at 2×10⁶ cells/ml in serum-free growth medium were added to U-bottom 96 well plate for a final concentration of 1×10⁵ cells/well. The cells were centrifuged at 1600 rpm for 2 minutes. The supernatants were gently discarded by hand with a one-time swing and the plate was patted gently to loose the cell pellet. […] The cells were centrifuged and the supernatants are transferred to a fresh plate and read at 450 nm (Soft MAX pro 4.0, Molecular Devices Corporation, Sunnyvale, Calif.).

In test [5] the target is T2, human RAGE-Fc fusion protein. The test is described as follows: antibody competition ELISA on hRAGE-Fc; competitor biotinylated XT-M4.
Test [6] shares this target. Description: ligand competition ELISA, panel Blocks hRAGE-Fc interaction with S100-A; blocked ligand S100-A.
Test [7] concerns the target T4, soluble human streptavidin-tagged RAGE (human, UniProt Q15109 23-344).
T4 construct: also called hRAGE-SA; human RAGE-strep
Description: BIACORE capture assay, antibody on CM5 chip, hRAGE-SA 0-100 nM in solution. As to the method:
The assays were performed by coating antibodies onto a CM5 BIA chip with 5000-7000 RU.
(In SPR one partner is held on a chip, and binding of the other changes the refractive index at the surface.)

Here are results for one molecule from patent publication US20070286858A1 (Pfizer, published 2007).

B1: XT-M4 (antibody, rat IgG2b, V domains shown)
VH: EVQLVESGGGLVQPGRSLKLSCVVSGFTFNNYWMTWIRQTPGKGLEWVASINNSGDNTYYPDSVKDRFTISRDNAKSTLYLQMNSLRSEDTATYYCTRGGDITTGFDYWGQGVMVTVSS
VL: DIQMTQSPSSMSVSLGDTITITCRASQDVGIYVNWFQQKPGKSPRRMIYRATNLADGVPSRFSGSRSGSIYSLTISSLESEDVADYHCLEFDEHPLTFGSGTKVEIK
notes: also called 1mRAGEP3/10; rat XT-M4
As usually defined, the EC50 is the concentration at which the effect is half-maximal. What is called Kd is the concentration at which binding is half-saturated. One may read the koff as the first-order rate constant of dissociation. One may read the kon as a measure of how fast the partners come together. Regarding B1, the EC50 in test [1] was 0.1 nM; in test [2] it was 0.3 nM; in test [4], approximately 2.33 nM. The “IC50 (read off the curve)” value is approximately 0.1 µg/mL in test [3], approximately 0.4 µg/mL in test [5] and approximately 0.07 µg/mL in test [6]. Moreover, the Ka in test [7] worked out at 2.03e+08 M⁻¹. In test [7], this molecule displayed a Kd of 4.92 nM. In test [7], this molecule registered a koff of 0.0186 s⁻¹. The molecule further had a kon in test [7] of 3.78e+06 M⁻¹ s⁻¹.
